The data set in a line: soluble on expression in E. coli; label from the status in PepcDB or PDB records.
Turning to “MVVGWHRPTRLHIDTQAITENVQKECQRLPEGTALFAVVKANGYGHGAVESAKAAKKGGATGFCVALLDEAIELREAGVQDPILILSVVDLAYVPLLIQYDLSVTVATQEWLEAALQQLTPESNTPLRVHLKVDTGMGRIGFLTPEETKQAVRFVQSHKEFLWEGIFTHFSTADEIDTSYFEKQAGRFKAVLAVLEELPRYVHVSNSATALWHPDVPGNMIRYGVAMYGLNPSGNKLAPSYALKPALRLTSELIHVKRLAAGEGIGYGETYVTEAEEWIGTVPIGYADGWLRHLQGFTVLVNGKRCEIVGRVCMDQCMIRLAEEVPVGPVVTLVGKDGNEENTLQMVAEKLETIHYEVACTFSQRIPREYN”, the “soluble on expression in E. coli” value was “soluble”. As to “MVVLYNECLKNHAVSLGGHALDGCGEFTPKSTTILTDPPSLRCDACGCHRNFHRRSPSDGFSQHRSPPSPLQLQPLAPVPNLLLSLSSGFFGPSDQEVKNKFTVERDVRKTAMIKKHKRTKFTAEQKVKMRGFAERAGWKINGWDEKWVREFCSEVGIERKVLKVWIHNNKYFNNGRSRDTTSSMSLNLKL”, the “soluble on expression in E. coli” value was “soluble”. Next, “MVVQSDGSPEAASYTLIHFWAAYDGESRAGNVRWSRYFAKRPDSRVRYVGVSMDKNLSVFTNTLAFDQIDLSAQRLVENSKRDQMLNIYGLKIRFHSYLVDAHGIIRAVDPNPDQLETIL”: “not soluble”. Consider “MVVVMNPEQIYGVSNIKSHIPVMLDIEESNYDAWRELFLTHCLSFDVMGHIDGTLLPTNANDVNWQKRDGIVKLSLYGTLTPKQFQGSFVTSSTSRDIWLRIKNQFRNNKDARALRLDSELRTKDIGDMRVADYYRKMKKLADSLRNVDVPVTDRNLVMYVLNGLNPKFDNIINVIKHRQPFPSFDDAATMLQEEEDRLKRAIKPNPTHVDHSSSSTVLACSEAPPVTNFQRSGGNQMGYRGRGRGNNIFRGRGGRFSYYNMPTFNSWNRPPFYQNSYQMWNHPWGYPPYVNTNGGNGLGLLGPRPAY”, for which the “soluble on expression in E. coli” value was “soluble”. Turning to “MWGKKDAGTELTNYQTLATNTIGMMKGVDGYAFTSGAKMTDTLIQAGAAKGMTVSGDPASGSATLWNSWGGQIVVAPDTAGGTGFNNGFTITTNKVPQSACVSISTGMSRSGGTSGIKINGNNHTDAKVTAEIASSECTADNGRTGTNTLVFNYNG”, the “soluble on expression in E. coli” value is “soluble”.

Take “MWPAIIQQLSEQLGKDFHLVEKEKVHGGDINECFMVSDGIDRYFVKTNQREYLTKFTAEVENLRVMRESNTVQVPEYILHGTSKTHAYLVLNYLATKPLDDAERSYEFGVQLANLHRWGEQKEFGFDIDNYIGATVQPNPWHKKWALFFAEQRIGWQLQLMQEKGVNLTNINEFVEMVKTRLANHSPRPSLLHGDLWFGNVANIVNGPLCFDPACYWGDRECDIALAEWFGGFQPEFFQGYESVWPLDWGYEERKDIYNLYHVLNHYNQFGGHYLDEAQKLIEKILSYLEHHHHHH”: the “soluble on expression in E. coli” value is on record as “not soluble”. Take “MWRKLTIIVVLLCLAGYAAYEQFGKSDQAAQGEQEKSEAAMKEMIASNGIEIGKSAPDFELTKLDGTNIKLSDLKGKKVILNFWATWCGPCQQEMPDMEAFYKKHKDNVEILAINYTPSEKGGGVEKVSNFAKEKGITFPILLDKNIDVTTAYKVITIPTSYFIDTKGVIQDKFIGPMTQKEMEKRIAKLK”: the “soluble on expression in E. coli” value is “not soluble”.

“MWRLTRKIGTRIHISNQLSPIFNKAIGTVPVFRFYSSSPEQKYRKKLLEEAQKQGFNSIEELKNHLKETIESKKREFNKIDPLKELEDYQQKTQMENNNSKHLMTKSRSPLDPSAPKVPFKTLDSFLDVGKLKDLSKQEVEFLWRARWAQKDNTLCAVIPVSVYDKMMANARNNPIFVLPLPRQVQSEDAKPNEEQGMELHYIQWQFVGPQTTHCMMTSLAEYKLHQEFARPHTTLQFHSDLVKDKGIVFMNGHVEPDTNVNVQDAQLLLLNVQRFYGAMGEETPVAKQRVQLLRDFSKASPGFTVEKLISLSQSMEN”: the “soluble on expression in E. coli” value is on record as “soluble”.

“MWRTRVVHTTGYVYQSPVTASYNEARLTPRSSSRQNLVLNRVETIPATRSYRYIDYWGTAVTAFDLHAPHTELTVTSSSVVETERPEPLAAKATWADLQSTAVIDRFDEVLRPTPHTPASARVDAVGRRIRKCHEPSEAVVAAARWARSELDYIPGTTSVHSSGLDALEQGKGVCQDFVHLSLMVLRSMGIPCRYVSGYLHPKRDAVVGKTVDGRSHAWVQAWTGGWWHYDPTNDNEITEQYISVGVGRDYTDVSPLKGIYSGEGVTDLDVVVEITRLA”: the “soluble on expression in E. coli” value was “soluble”.

The record behind these values is the DeepSol protein solubility set.
